# Source: US11612662B2, “Multi-arm polymeric prodrug conjugates of pemetrexed-based compounds” (priority 2010, dated 2023)
# How the values were obtained:
# [1] = Single dose maximum tolerated dose study; type: in vivo, mice; settings: single intravenous dose; for Single dose MTD: dose equivalents
# Experimental: Because of too much efficacy of daily dosing for ten days in a pilot xenograft study (likely due to the effects of repeated dosing), a single dose maximum tolerated dose study was conducted using a method similar to that provided in Example 3 in order to have a better dosing schedule for a comparative xenograft study.
# [2] = tested on: xenograft; experiment: In vivo xenograft study; design: species or system female athymic nu/nu mice; settings: as of day 26; intravenously, at 80% and at 50% of the single dose maximum tolerated dose
# Experimental: Briefly, for run of the experiment, a previously untreated group of 8-12 week old mice was intravenously administered a test article prepared in saline and diluted to appropriate concentrations to allow administration volumes of a maximum of 20 mL/kg. Each compound of interest was tested twice: once at 80% of the maximum tolerated dose and once at 50% of the maximum tolerated (maximum tolerated doses calculated on the single dose maximum tolerated dose study).
# Mice were observed daily for clinical signs and body weights were recorded daily (except on weekend days) then biweekly until the end of study. Dosing was terminated for any group in which mean weight loss exceeded 20% or >10% of animals died. Moribund animals were euthanized.
# [3] = in vivo; settings: for Days of Deaths (s = surviving at study end) / tolerability of the dosage level / common clinical signs / necropsy findings / Max. Mean Body Weight change during Rx (%) / Day of Max. Mean Body Weight Loss (body weight nadir) / maximum treatment-related body weight loss / time to recover lost body weight / % Rx Related Deaths: low folate diet; for Days of Deaths (s = surviving at study end): five mice listed singly; for tolerability of the dosage level: tolerated if treatment-related weight loss <20%; for Day of Max. Mean Body Weight Loss (body weight nadir) / % Rx Related Deaths: once each day for ten days
# Experimental: The purpose of this study was to determine the maximum tolerated dose for pemetrexed (PMX), Compound 20a (from Example 1), Compound 20b (from Example 1), Compound 20c (from Example 1), and Compound 20d (from Example 1) in female SCID mice fed a low folate diet. All compounds were administered intravenously, once each day, for ten consecutive days.
# Calculations were made to provide “dose equivalents” between PMX, Compound 20a, Compound 20b, Compound 20c and Compound 20d, which “dose equivalents” along with the “actual dose” administered are provided in Table 2. All dosagese in this example are expressed in terms of “dose equivalents” and adjustments were made for excipients, salts and hydration state.
# Female SCID mice (HsdIcr:Ha (ICR)-Prkdc-scid) were obtained from Harlan. They were seven weeks old on Day 1 of the experiment. The mice in Groups 1 and 2 were fed irradiated Rodent Diet 5053 (LabDiet™). The mice in Groups 3 through 19 were fed irradiated Folic Acid Deficient Purina TestDiet supplemented with 1% succinylsufathiazol from 14 days prior to dosing until 14 days after dosing was completed, at which time the study was terminated and the mice were then euthanized. All groups received drinking water ad libitum. Mice were housed in static cages in clean rooms that provide H.E.P.A filtered air into the environment at 100 complete air changes per hour. All treatments, body weight determinations, and tumor measurements were carried out in the environment. The environment was controlled to a temperature range of 70°±2° F. and a humidity range of 30-70%. […] Mice found in obvious distress or in a moribund condition were euthanized. The study was carried out in an AAALAC accredited facility.
# Treatments began on Day 1. […] Mice in Groups 3 through 19 were fed irradiated Folic Acid Deficient Purina TestDiet with 1% Succinylsufathiazol for 14 days prior to dosing as well as throughout the entire experiment. All mice were dosed according to individual body weight on the day of treatment (0.2 ml/20 g).
# Mice were weighed on each day of treatment and at least three times weekly thereafter. Individual body weights were recorded three times weekly. […] In this report, a dosage level is described as tolerated if treatment-related weight loss (during and two weeks after treatment) is <20%. Upon death or euthanasia, all mice were necropsied to provide a general assessment of potential cause of death and perhaps target organs for toxicity.
# [4] = 3.75 mg/kg/inj dose equivalents
# [5] = intravenously once each day for ten days, 1 mg/kg/inj dose equivalents
# [6] = intravenously once each day for ten days, 3.75 mg/kg/inj dose equivalents
# [7] = intravenously once each day for ten days, 15 mg/kg/inj dose equivalents
substance,measurement,setting,value
4-arm-PEG20k-γ-amide-Pemetrexed Conjugate [Compound 20b],Single dose MTD,[1]; in mg/kg,70
same,BWL (body weight loss),[1]; tested dose (equiv) 70,−8.7%
same,day (of body weight loss),[1]; tested dose (equiv) 70,7
same,treatment-related deaths,[1]; tested dose (equiv) 70,0
same,BWL (body weight loss),[1]; tested dose (equiv) 95,−16.4%
same,day (of body weight loss),[1]; tested dose (equiv) 95,7
same,treatment-related deaths,[1]; tested dose (equiv) 95,0
same,BWL (body weight loss),[1]; tested dose (equiv) 125,−24.4%
same,day (of body weight loss),[1]; tested dose (equiv) 125,7
same,mean day of death,[1]; tested dose (equiv) 125,9
same,treatment-related deaths,[1]; tested dose (equiv) 125,1
same,tumor volume compared with saline control,[2],significantly less tumor volume than saline control
same,tumor volume compared with the other articles tested,[2],lowest tumor volumes of all articles tested
same,Days of Deaths (s = surviving at study end),[3]; 1 mg/kg/inj dose equivalents,"s, s, s, s, s"
same,tolerability of the dosage level,[3]; 1 mg/kg,well tolerated
same,Days of Deaths (s = surviving at study end),[3]; [4],"s, s, s, s, s"
same,tolerability of the dosage level,[3]; 3.75 mg/kg,well tolerated
same,Days of Deaths (s = surviving at study end),[3]; 15 mg/kg/inj dose equivalents,"s, s, s, s, s"
same,tolerability of the dosage level,[3]; 15 mg/kg,well tolerated
same,common clinical signs,[3]; dosage levels found tolerated,Rough pelage
same,necropsy findings,[3]; dosage levels found tolerated,Nothing significant
same,Max. Mean Body Weight change during Rx (%),[3]; [5],−1.8%
same,Max. Mean Body Weight change during Rx (%),[3]; [6],−6.5%
same,Max. Mean Body Weight change during Rx (%),[3]; [7],−16.9%
same,Day of Max. Mean Body Weight Loss (body weight nadir),[3]; 1 mg/kg/inj dose equivalents,5
same,Day of Max. Mean Body Weight Loss (body weight nadir),[3]; [4],5
same,Day of Max. Mean Body Weight Loss (body weight nadir),[3]; 15 mg/kg/inj dose equivalents,12
same,MTD (maximum tolerated dose),"[3]; mice fed a folate deficient diet, intravenously once each day for ten days, dose equivalents",~15 mg/kg
4-arm-PEG30k-γ-amide-Pemetrexed Conjugate [Compound 20c],Single dose MTD,[1],<40
same,BWL (body weight loss),[1]; tested dose (equiv) 40,−19.6%
same,day (of body weight loss),[1]; tested dose (equiv) 40,9
same,mean day of death,[1]; tested dose (equiv) 40,12
same,treatment-related deaths,[1]; tested dose (equiv) 40,5
same,BWL (body weight loss),[1]; tested dose (equiv) 70,−25.0%
same,day (of body weight loss),[1]; tested dose (equiv) 70,9
same,mean day of death,[1]; tested dose (equiv) 70,10.5
same,treatment-related deaths,[1]; tested dose (equiv) 70,2
same,BWL (body weight loss),[1]; tested dose (equiv) 95,−27.1%
same,day (of body weight loss),[1]; tested dose (equiv) 95,7
same,mean day of death,[1]; tested dose (equiv) 95,9
same,treatment-related deaths,[1]; tested dose (equiv) 95,3
same,BWL (body weight loss),[1]; tested dose (equiv) 125,−25.3%
same,day (of body weight loss),[1]; tested dose (equiv) 125,9
same,mean day of death,[1]; tested dose (equiv) 125,10.5
same,treatment-related deaths,[1]; tested dose (equiv) 125,2
same,tumor volume compared with saline control,[2],significantly less tumor volume than saline control
same,tumor volume compared with the other articles tested,[2],lowest tumor volumes of all articles tested
same,maximum treatment-related body weight loss,[3]; 1 mg/kg,4.8%
same,time to recover lost body weight,[3]; 1 mg/kg,5.5 days
same,Days of Deaths (s = surviving at study end),[3]; 1 mg/kg/inj dose equivalents,"s, s, s, s, s"
same,tolerability of the dosage level,[3]; 1 mg/kg,tolerated
same,maximum treatment-related body weight loss,[3]; 3.75 mg/kg,1.4%
same,time to recover lost body weight,[3]; 3.75 mg/kg,2.2 days
same,Days of Deaths (s = surviving at study end),[3]; [4],"s, s, s, s, s"
same,tolerability of the dosage level,[3]; 3.75 mg/kg,tolerated
same,maximum treatment-related body weight loss,[3]; 15 mg/kg,18.8%
same,time to recover lost body weight,[3]; 15 mg/kg,not recovered prior to study termination
same,tolerability of the dosage level,[3]; 15 mg/kg,toxic
same,common clinical signs,[3]; dosage levels found tolerated,Rough pelage
same,necropsy findings,[3]; dosage levels found tolerated,no significant findings
same,necropsy findings,[3]; dosage levels found toxic,Necrotic intestines
same,Max. Mean Body Weight change during Rx (%),[3]; [5],−4.8%
same,Max. Mean Body Weight change during Rx (%),[3]; [6],−1.4%
same,Max. Mean Body Weight change during Rx (%),[3]; [7],−22.0%
same,% Rx Related Deaths,[3]; 1 mg/kg/inj dose equivalents,0%
same,Day of Max. Mean Body Weight Loss (body weight nadir),[3]; 1 mg/kg/inj dose equivalents,10
same,% Rx Related Deaths,[3]; [4],0%
same,Day of Max. Mean Body Weight Loss (body weight nadir),[3]; [4],5
same,% Rx Related Deaths,[3]; 15 mg/kg/inj dose equivalents,20%
same,Day of Max. Mean Body Weight Loss (body weight nadir),"[3]; 15 mg/kg/inj dose equivalents, 15 mg/kg",19
